Measurements: paper PMC10704431, “A complex with poly(A)-binding protein and EWS facilitates the transcriptional function of oncogenic ETS transcription factors in prostate cells” (The Journal of Biological Chemistry, 2023)

Target: T1, His-PABPC1 (UniProt P11940 1-636)
T1 construct: also called purified His-PABPC1; source: E. coli BL21 (pET28a), purified with nickel-nitrilotriacetic acid beads
Test: pull-down; purified GST-tagged EWS fragment on glutathione magnetic beads; purified His-tagged protein (PABPC1 or ERG) added, no third protein; immunoblot
Settings: both partners purified

T1 sequence (P11940 whole entry): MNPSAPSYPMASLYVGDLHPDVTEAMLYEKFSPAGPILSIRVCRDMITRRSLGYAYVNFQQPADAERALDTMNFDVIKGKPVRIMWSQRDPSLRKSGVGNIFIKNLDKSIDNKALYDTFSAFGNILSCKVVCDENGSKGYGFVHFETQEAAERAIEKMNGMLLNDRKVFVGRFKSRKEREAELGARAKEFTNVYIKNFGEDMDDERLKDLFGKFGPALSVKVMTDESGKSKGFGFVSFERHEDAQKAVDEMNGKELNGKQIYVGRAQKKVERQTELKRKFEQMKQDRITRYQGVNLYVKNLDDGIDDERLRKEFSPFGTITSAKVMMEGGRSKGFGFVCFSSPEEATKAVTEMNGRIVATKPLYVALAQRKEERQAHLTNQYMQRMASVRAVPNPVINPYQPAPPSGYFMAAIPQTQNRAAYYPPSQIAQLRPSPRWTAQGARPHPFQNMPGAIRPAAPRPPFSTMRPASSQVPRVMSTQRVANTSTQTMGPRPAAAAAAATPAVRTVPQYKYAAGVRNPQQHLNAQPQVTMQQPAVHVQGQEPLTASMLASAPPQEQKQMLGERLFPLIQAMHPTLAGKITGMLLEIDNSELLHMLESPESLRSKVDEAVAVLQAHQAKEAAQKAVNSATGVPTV

B1: GST-EWS 356 to 656 (ctEWS) (domain or fragment, UniProt Q01844 356-656, looked up)
chain: EDSDNSAIYVQGLNDSVTLDDLADFFKQCGVVKMNKRTGQPMIHIYLDKETGKPKGDATVSYEDPPTAKAAVEWFDGKDFQGSKLKVSLARKKPPMNSMRGGLPPREGRGMPPPLRGGPGGPGGPGGPMGRMGGRGGDRGGFPPRGPRGSRGNPSGGGNVQHRAGDWQCPNPGCGNQNFAWRTECNQCKAPKPEGFLPPPFPPPGGDRGRGGPGGMRGGRGGLMDRGGPGGMFRGGRGGDRGGFRGGRGMDRGGFGGGRRGGPGGPPGPLMEQMGGRRGGRGGPGKMDKGEHRQERRDRPY
notes: also called GST-ctEWS; C terminus of EWS; source: E. coli BL21 (pGEX-6p-2), purified with magnetic GSH beads
binding result: binds
